Source: US20180222961A1

Target: HLA-A*02:01 (human)
Test: UV-exchange b2m ELISA; exchange-yield grade
Settings: remark: other sources report otherwise

B1: … (peptide)
peptide: SVFAHPRKL
  peptide exchange yield: 50 to 75%
